Reference: paper PMC7022617

What was measured:
[1] = test system: hemagglutinin H5 on virus particles (Influenza A virus A/chicken/Kurgan/3654at/2005 (H5N1)); test: ELAA
[2] = test system: hemagglutinin H3 on virus particles (Influenza A virus A/England/42/1972 (H3N2)); test: ELAA
[3] = test system: hemagglutinin H9 on virus particles (Influenza A virus A/duck/Primorie/3628/2002 (H9N2)); test: ELAA
[4] = test system: hemagglutinin H7 on virus particles (Influenza A virus A/mallard/Sweden/91/2002 (H7N9)); test: ELAA
[5] = test system: hemagglutinin HA1 subunit H9 (recombinant, Abcam ab67740) (Influenza A virus H9 (strain not given)); test: SPR
[6] = test system: hemagglutinin HA1 subunit H3 (recombinant, Abcam ab69749) (Influenza A virus H3 (strain not given)); test: SPR
[7] = test system: hemagglutinin HA1 subunit H1 (recombinant, Abcam ab69741) (Influenza A virus H1 (strain not given)); test: SPR

With “TTGGGGTAAGAAGGGAGGGCGGGGGTT [5'-biotin G7-TAAGAA]” the Kd [1] was 9 nM, the Kd [2] was 17 nM and the Kd [3] was 7 nM. It also gave a Kd [4] of 13 nM.

With TTGGGGTAAGAAGGGAGGGCGGGGGTT [G7-TAAGAA] the Kd [5] was 60 nM, the Kd [6] was 60 nM and the Kd [7] was 60 nM.

“TTGGGGTTAGGGAGGGCGGGGGTT [5'-biotin G7-TTA]” gave a Kd [1] of 13 nM, a Kd [2] of 7 nM and a Kd [3] of 10 nM. The Kd [4] was 6 nM.

Sequence TTGGGGTTAGGGAGGGCGGGGGTT [G7-TTA] has a Kd [5] of 28 nM, a Kd [6] of 16 nM and a Kd [7] of 30 nM.

For “TTGGGGTTATTAAGGGAGGGCGGGGGTT [5'-biotin G7-TTATTAA]”, the Kd [1] was 5 nM, the Kd [2] was 8 nM and the Kd [3] was 8 nM. The Kd [4] was 13 nM.

“TTGGGGTTATTAAGGGAGGGCGGGGGTT [G7-TTATTAA]” gave a Kd [5] of 28 nM, a Kd [6] of 50 nM and a Kd [7] of 90 nM.

For “TTGGGGTTATTTTGGGAGGGCGGGGGTT [5'-biotin RHA0385]”, the Kd [1] was 4 nM, the Kd [2] was 2 nM and the Kd [3] was 5 nM. For the same sequence, the Kd [4] was 8 nM.

With TTGGGGTTATTTTGGGAGGGCGGGGGTT [RHA0385] the Kd [5] was 14 nM, the Kd [6] was 12 nM and the Kd [7] was 7 nM.
